To fix the notation:
B1: SERPINH1 (protein)
chain: AEVKKPAAAAAPGTAEKLSPKAATLAERSAGLAFSLYQAMAKDQAVENILVSPVVVASSLGLVSLGGKATTASQAKAVLSAEQLRDEEVHAGLGELLRSLSNSTARNVTWKLGSRLYGPSSVSFADDFVRSSKQHYNCEHSKINFRDKRSALQSINEWAAQTTDGKLPEVTKDVERTDGALLVNAMFFKPHWDEKFHHKMVDNRGFMVTRSYTVGVMMMHRTGLYNYYDDEKEKLQIVEMPLAHKLSSLIILMPHHVEPLERLEKLLTKEQLKIWMGKMQKKAVAISLPKGVVEVTHDLQKHLAGLGLTEAIDKNKADLSRMSGKKDLYLASVFHATAFELDTDGNPFDQDIYGREELRSPKLFYADHPFIFLVRDTQSGSLLFIGRLVRPKGDKMRDEL
B2: YARS2 (protein)
chain: TLNLSVLLPLGLRKAHSGAQGLLAAQKARGLFKDFFPETGTKIELPELFDRGTASFPQTIYCGFDPTADSLHVGHLLALLGLFHLQRAGHNVIALVGGATARLGDPSGRTKEREALETERVRANARALRLGLEALAANHQQLFTDGRSWGSFTVLDNSAWYQKQHLVDFLAAVGGHFRMGTLLSRQSVQLRLKSPEGMSLAEFFYQVLQAYDFYYLFQRYGCRVQLGGSDQLGNIMSGYEFINKLTGEDVFGITVPLITSTTGAKLGKSAGNAVWLNRDKTSPFELYQFFVRQPDDSVERYLKLFTFLPLPEIDHIMQLHVKEPERRGPQKRLAAEVTKLVHGREGLDSAKRCTQALYHSSIDALEVMSDQELKELFKEAPFSEFFLDPGTSVLDTCRKANAIPDGPRGYRMITEGGVSINHQQVTNPESVLIVGQHILKNGLSLLKIGKRNFYIIKWLQL
B3: ACOX1 (protein)
chain: MNPDLRRERDSASFNPELLTHILDGSPEKTRRRREIENMILNDPDFQHEDLNFLTRSQRYEVAVRKSAIMVKKMREFGIADPDEIMWFKKLHLVNFVEPVGLNYSMFIPTLLNQGTTAQKEKWLLSSKGLQIIGTYAQTEMGHGTHLRGLETTATYDPETQEFILNSPTVTSIKWWPGGLGKTSNHAIVLAQLITKGKCYGLHAFIVPIREIGTHKPLPGITVGDIGPKFGYDEIDNGYLKMDNHRIPRENMLMKYAQVKPDGTYVKPLSNKLTYGTMVFVRSFLVGEAARALSKACTIAIRYSAVRHQSEIKPGEPEPQILDFQTQQYKLFPLLATAYAFQFVGAYMKETYHRINEGIGQGDLSELPELHALTAGLKAFTSWTANTGIEACRMACGGHGYSHCSGLPNIYVNFTPSCTFEGENTVMMLQTARFLMKSYDQVHSGKLVCGMVSYLNDLPSQRIQPQQVAVWPTMVDINSPESLTEAYKLRAARLVEIAAKNLQKEVIHRKSKEVAWNLTSVDLVRASEAHCHYVVVKLFSEKLLKIQDKAIQAVLRSLCLLYSLYGISQNAGDFLQGSIMTEPQITQVNQRVKELLTLIRSDAVALVDAFDFQDVTLGSVLGRYDGNVYENLFEWAKNSPLNKAEVHESYKHLKSLQSKL
B4: SSB (protein)
chain: MAENGDNEKMAALEAKICHQIEYYFGDFNLPRDKFLKEQIKLDEGWVPLEIMIKFNRLNRLTTDFNVIVEALSKSKAELMEISEDKTKIRRSPSKPLPEVTDEYKNDVKNRSVYIKGFPTDATLDDIKEWLEDKGQVLNIQMRRTLHKAFKGSIFVVFDSIESAKKFVETPGQKYKETDLLILFKDDYFAKKNEERKQNKVEAKLRAKQEQEAKQKLEEDAEMKSLEEKIGCLLKFSGDLDDQTCREDLHILFSNHGEIKWIDFVRGAKEGIILFKEKAKEALGKAKDANNGNLQLRNKEVTWEVLEGEVEKEALKKIIEDQQESLNKWKSKGRRFKGKGKGNKAAQPGSGKGKVQFQGKKTKFASDDEHDEHDENGATGPVKRAREETDKEEPASKQQKTENGAGDQ

The target of this test is FLAG-HA-Atoh1 (Mus musculus (Mouse)) (UniProt P48985). As to the kind of experiment: IP-MS: immunoprecipitation of Atoh1 and its associated binding partners, excised gel band, mass spectrometry.
On to PDE4B (from UniProt Q07343), for which the Total peptide came to 1 peptides.

In the case of “CK1ε (CSNK1E), endogenous in 293T cells (from UniProt P49674) (enzyme)”, the Total peptide is 6 peptides.

In turn, TUBA1C (from UniProt Q9BQE3) came in with a Total peptide of 7 peptides.

Take BCKDHA (from UniProt P12694): the Total peptide was determined as 5 peptides.

Molecule PSMC2 (from UniProt P35998) showed a Total peptide of 50 peptides.

Take PSMC5 (from UniProt P62195): the Total peptide was determined as 52 peptides.

TUBB2B (from UniProt Q9BVA1): the Total peptide was 2 peptides.

Regarding PRDX4 (from UniProt Q13162), the Total peptide was 1 peptides.

In the case of PRPS1 (from UniProt P60891), the Total peptide was found to be 3 peptides.

Consider TUBA1A (from UniProt Q71U36), for which the Total peptide is 112 peptides.

With ENO1 (from UniProt P06733), the Total peptide was 62 peptides.

Molecule TUBB2A (from UniProt Q13885) gave a Total peptide of 159 peptides.

EEF1A1 (from UniProt P68104) displayed a Total peptide of 103 peptides.

On to TUBA4A (from UniProt P68366), for which the Total peptide turned out to be 1 peptides.

For “CK1δ (CSNK1D), endogenous in 293T cells (from UniProt P48730) (enzyme)”, the Total peptide was 7 peptides.

AAMP (from UniProt Q13685) had a Total peptide of 1 peptides.

For RBMX (from UniProt P38159), the Total peptide was 65 peptides.

Regarding B1, the Total peptide worked out at 9 peptides.

Turning to B2, the Total peptide is 11 peptides.

B3 returned a Total peptide of 5 peptides.

B4 came in with a Total peptide of 65 peptides.

Values taken from patent publication US20190247381A1.
